7 substances from PMC12065222 can be followed below.

For series [1], the target named is PD-1 on IcAR-PD-1 cells (Immune Checkpoint Artificial Reporter overexpressing PD-1) (human) (UniProt Q15116).
Series [2] shares this target. This is another data set of the same source.
The target in series [3] is PD-1 on primary human CD8+ T cells (human (endogenous in primary T cells of donors)) (UniProt Q15116).
For series [4] the target is unchanged. This is another data set of the same source.
The target of series [5] is PD-1 on IcAR-PD-1 cells (Immune Checkpoint Artificial Reporter overexpressing PD-1) (human) (UniProt Q15116). This is another data set of the same source.
Series [6] shares this target. The source holds these as a separate data set.
The nature of series [7]: surface PD-L1 flow cytometry, MCF7. The following applies: glycan lost; control: WT PD-L1, MCF7. (In general: In flow cytometry, cells or beads pass a laser one at a time.)
A short description of series [8]: IcAR-PD-1 mIL-2 with ICBs, A375 and A549 cells. The following applies: glycan lost; control: WT PD-L1.
A short description of series [9]: total-cellular/membrane PD-L1 ratio, flow cytometry, fixed MDA-MB231. The following applies: glycan lost; control: WT PD-L1, MDA-MB231.
Series [10] is described as follows: PD-L1 ELISA of cell lysates, MDA-MB231 and MCF7. The following applies: glycan lost; control: WT PD-L1. (In general: An ELISA detects its analyte on a solid surface through an enzyme-linked reagent.)
A short description of series [11]: total-cellular/membrane PD-L1 ratio, flow cytometry, fixed MCF7. The following applies: glycan lost; control: WT PD-L1, MCF7.
Series [12] can be described thus: EV-bound PD-L1 ELISA after ultracentrifugation. The following applies: glycan lost; control: WT PD-L1.
Series [13] is described as follows: surface PD-L1 flow cytometry, MDA-MB231. The following applies: glycan lost; control: WT PD-L1, MDA-MB231.
Series [14] in a line: soluble PD-L1 ELISA of supernatants, MDA-MB231 and MCF7. The following applies: glycan lost; control: WT PD-L1.
Series [15] has as its target PD-1 on IcAR-PD-1 cells (Immune Checkpoint Artificial Reporter overexpressing PD-1) (human) (UniProt Q15116). This is another data set of the same source.

“PD-L1 N35A glycosylation mutant (from UniProt Q9NZQ7 19-290) (ligand)”: in [1], the percent blocking of the mIL-2 signal of IcAR-PD-1 cells by the anti-PD-1 antibody Nivolumab (1.5-40 µg/mL), MCF7 cells is over 50%. In [2], this substance yielded a percent blocking of the mIL-2 signal of IcAR-PD-1 cells by Cemiplimab (anti-PD-1, 10 µg/mL), fixed MCF7 cells of 53%; a percent blocking of the mIL-2 signal of IcAR-PD-1 cells by Cemiplimab (anti-PD-1, 10 µg/mL), fixed MDA-MB231 cells of 19.6%; a percent blocking of the mIL-2 signal of IcAR-PD-1 cells by Nivolumab (anti-PD-1, 10 µg/mL), fixed MCF7 cells of 98.6%; a percent blocking of the mIL-2 signal of IcAR-PD-1 cells by Nivolumab (anti-PD-1, 10 µg/mL), fixed MDA-MB231 cells of 83.2%. For the same substance, in series [2], the percent blocking of the mIL-2 signal of IcAR-PD-1 cells by Pembrolizumab (anti-PD-1, 10 µg/mL), fixed MCF7 cells was determined as 100% and the percent blocking of the mIL-2 signal of IcAR-PD-1 cells by Pembrolizumab (anti-PD-1, 10 µg/mL), fixed MDA-MB231 cells is 91.6%. Besides, in series [3], the percent of CD107a+ cells among CD8+ PD-1+ TCM cells (degranulation) after 4 h co-culture of anti-hCD3-activated PBMCs with MCF7 cells is 3.1% and the percent of CD107a+ cells among CD8+ PD-1+ TCM cells (degranulation) after 4 h co-culture of anti-hCD3-activated PBMCs with MDA-MB231 cells worked out at 3.7%. For the same substance, in [4], the percent lysis of MCF7 target cells by PBMCs (killing assay) is 3.8% and the percent lysis of MDA-MB231 target cells by PBMCs (killing assay) was 12.2%.
Consider “PD-L1 Nx4 mutant (all four N-glycosylation sites replaced by alanine) (from UniProt Q9NZQ7 19-290) (ligand)”, for which, in series [3], the percent of CD107a+ cells among CD8+ PD-1+ TCM cells (degranulation) after 4 h co-culture of anti-hCD3-activated PBMCs with MCF7 cells worked out at 6.1% and the percent of CD107a+ cells among CD8+ PD-1+ TCM cells (degranulation) after 4 h co-culture of anti-hCD3-activated PBMCs with MDA-MB231 cells is 10.3%. In addition, the percent blocking of the mIL-2 signal of IcAR-PD-1 cells by anti-PD-1 antibodies Pembrolizumab, Nivolumab, Cemiplimab, all concentrations, MDA-MB231 and MCF7 cells in [5] is 100%. In [4], this substance came in with a percent lysis of MCF7 target cells by PBMCs (killing assay) of 7% and a percent lysis of MDA-MB231 target cells by PBMCs (killing assay) of 39.1%. In series [6], this substance yielded a mIL-2 response of IcAR-PD-1 cells incubated 24 h with formalin-fixed MCF7 cells, no antibody; fold reduction against PD-L1WT (fold reduction) of 22 and a mIL-2 response of IcAR-PD-1 cells incubated 24 h with formalin-fixed MDA-MB231 cells, no antibody; fold reduction against PD-L1WT (fold reduction) of 10.
Turning to PD-L1: N35A, the “expression_or_secretion, fold_change” value in series [7] and in [13] was “no change” throughout. Besides, the “other: antibody blockade of PD-L1/PD-1 interaction” value in series [8] is “decreases”. For the same substance, the “localisation_or_trafficking, fold_change” value in series [9] is reported as “no change, a slight increase in total-cellular PD-L1 levels was observed in PD-L1N35A mutant MDA-MB231 cells”. The expression_or_secretion entry is “no change” in series [10]; “increases” in [12]; “increases, decreased by approximately 35% in MDA-MB231 PD-L1N35A cells and about 45% in MCF7 PD-L1N35A cells” in series [14]. Moreover, the localisation_or_trafficking entry in [11] was “no change”.
PD-L1: N192A: the “expression_or_secretion, fold_change” value in series [7] and in [13] was “no change” each time.
Consider PD-L1: N200A, for which the “expression_or_secretion, fold_change” value in series [7] and in series [13] was “no change” in each case.
As to PD-L1: N219A, the “expression_or_secretion, fold_change” value in series [7] and in [13] was “no change” each time.
With “WT PD-L1 (programmed death-ligand 1) (from UniProt Q9NZQ7 19-290)”, the concentration of the anti-PD-1 antibody Pembrolizumab that completely blocked the mIL-2 signal of IcAR-PD-1 cells, MDA-MB231 and MCF7 cells in [15] came to 20 µg/mL.
